Data taken from the RNAGym collection of RNA variant scans (doi:10.1073/pnas.2313332121).

B1: TPR t1 (parent)
chain: GACCAAUCUGCCCUCAGAGCUCGAGAACAUCUUCGGAUGCAGAGGAGGCAGGCUUCGGUGGCGCGAUAGCGCCAACGUCCUCAACCUCCAAUGCAUCCCACCACAUGAUGAUGCCUGAAGAGCCUUGGUUUUUUG

Variants of: B1
Assay: polymerase ribozyme fitness, log enrichment relative to wild type (log ratio); higher = more active; in vitro selection for triplet polymerase activity
Procedure, shortened: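 PCR was used to build mutant libraries for each subunit of a heterodimeric triplet polymerase ribozyme, which were then transcribed. A single in vitro selection round, in triplicate, used a frozen incubation at −7 °C and recovered extended constructs by gel excision, streptavidin beads and RT-PCR. Fitness is the logarithm of genotype enrichment relative to wild-type enrichment, averaged over replicates with inverse-variance weights. The logarithm is base 2, and after Illumina sequencing only genotypes with ≥10 input reads and ≥1 read per output were kept.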

Variant | polymerase ribozyme fitness (log ratio)
G57A U59C G120C U132A | -0.265
U59A C114A U130A | -2.17
G60U A118C | -2.43
G60U A118U | -0.552
G60C U112G U116C | -2.47
U59C U92G C114G U125G | -4.63
G61A C88U A100U G120A | -0.447
G57C U81C | 0.391
U59A C124A | 1.62
G58C C80A | -3.5
G60U C101A C123G | 0.75
G58C G60U A118G | -0.24
U59A C123G G127A | 0.53
G60C C88A U112A | -0.182
U59G G77U G117A | -1.91
G57C C62U | -0.549
G61C A84U | -1.95
G58C C72U A119U | -0.967
G60U C85G C102A | -2.17
G60A C115G | -1.65
G60A C115A | -0.714
U59C C82A C88G | -2.83
G60C A74U U81G C115A | -3.12
G61A C64U C72U A91U | -1.32

Variant | polymerase ribozyme fitness (log ratio)
G60U G110U | -0.553
G60U G110A | -1
G60U C101A | -0.256
G60U G69A | -4.86
G61A U106G C114U | -3.24
G60C C94A C102U U106A | -6.72
G58A G71U C79A | -1.79
G61C A111C | -1.98
G61C A111G | -0.983
G57U G58C | -1.12
G58A U59C | -0.583
G61A A111U G128C U133G | -4.57
U59C C64U C82G C94U | -1.7
G57C C115A | 0.0474
G57C C99U A118G | -4.32
G61C A74U | -4.43
G60C A66G | -1.22
G61A G113A | -0.325
U59C G120A G135U | -0.46
G58C C70U A103U | -6.42
U59C U96C | -0.447
G58C C85A | 0.0552
G60A C104U | 0.164
G58A C114G | -3.37

Variant | polymerase ribozyme fitness (log ratio)
G60C C99U | -4.01
U59C G128U | -2.04
G60U C76U | -2.74
G57U U125A | -0.415
G57U C62U U81A | -0.351
G60C C86U U106A | -0.567
G60C G110C | -4.39
G60C C115A G120U | -0.0517
U59A C89U C124A U125A | 1.78
G58U G61A | -0.176
G60U A83C G117A | -2.26
U59G A90U | -0.957
U59A U81A A119U | -0.551
U59C C72U G117A | -1.45
G60A C88U G127A | -1.7
G60U C89G U96G U129A | -3.9
G61A C85G | 0.134
U59A G77U G117U | -2.87
G61A A121G | 1.21
G61C C79U G117A G128A | -4.76
G61A C73A G127A | -1.74
G57C A83G U116G | -2.83
G57C G61A G120A | 0.501
U59A C114A | -1.7

Variant | polymerase ribozyme fitness (log ratio)
G60U A68G | -3.02
G58C G69A C123A | -3.42
G57C C97U G110U C115U | -6.98
G61C A66U | -0.911
G61A C64U U81G G120U | -7.13
U59G A111C | 0.213
G57C U87A | -1.1
G57U C85A | -2.14
G60A U131G | 0.0187
G61A C88U | -0.64
G61A C88G G120A A121C G135U | -0.364
G60C C123G | 1.61
G61A U116G A121U | 0.807
G60C C80A | -4.35
G60U A75U U87C | 0.354
G60U C62G A83C | -0.657
G60A G93A | 0.0256
G57U G69U | -0.378
G60A C70U C102A C115A | -3.29
U59G C124U | 1.25
G61A C86U U116A G117A | -2.15
U59A G128C | -2.5
U59G G127U | -0.904
G60A U116C | -0.935

Variant | polymerase ribozyme fitness (log ratio)
G58A U129C | -0.222
G60A C99A A103C A111C | -6.52
G60U C104A | -1.7
G60A G63A | -2.96
G57U C70U C76G U131C | -0.726
U59C A108G | -2.19
G58C U78G A90C A118U G127C | -2.89
G60A G122A U132C | -0.379
G61A C104A | -1.95
G57U C72G U96A | -2.83
G60C A121U U125G U129G | -0.914
G60A G77C A111C C123A | -3.68
G60U U87G U129G | -0.951
U59A C88U A118U | 0.167
G60C U106G | -3.41
G60C U106C | -0.702
U59G C82U G93U U96C C123U | -0.453
G60C G107A | -5.47
G60C G107U | -4.16
G60C A111G | -0.122
G60A C94U | -0.196
G60A C79A A84U | -2.32
G60U U78C | -0.915
G60A C94A G128C | -3.09

Variant | polymerase ribozyme fitness (log ratio)
U59C A119G | 0.816
G57U C70G C124G | -2.06
G57C A91C | -0.77
G57U C79U A108G | -2.71
G58C U129G | -0.485
G57C G60U A100U U130G | -0.0419
U59G C99U U106A | -1.43
G60C G93U C114A | -2.51
G60A A100U | -0.621
G60C A74U C88G | -2.91
G60A C94U C124U | 1.59
G61A C88G C104U C123G | 1.29
U59C G93A | -1.47
G57C G58A C114U | -3.53
G57A U78C | -1.27
G61A C70G | -4.02
G60U C82G | -1.12
U59G G61A | -2.76
U59A A74C C82A G93C | -1.19
G58U C73U | -0.0574
G58C U96G C104U | -0.405
G60A A74U U92A C104U U133A | -2.03
G61A C115A U129A U132A | -3.87
G61A C104A G110A | -3.83

Variant | polymerase ribozyme fitness (log ratio)
G61A C72A | -0.462
U59A C89A | -1.85
U59C A91G U133G | -2.51
G58C C72G A121U | 1.78
G58A C64U U78C C86U A111C U129C | -1.68
G57U C62A G117U | -5.4
G61A C124G | 1.77
U59G G60A C70G C115A A121C | -4.99
G60A U92G C115A G120C | -2.03
G58C C124A | 1.82
U59A A66C C124A | 0.00699
U59A C82G A119U | -0.921
U59A C82A G93C | -0.829
G60U U112A | 1.6
G60A U130A | -0.439
G60A U130G | -0.663
G58C C80G C88A | -6.49
G60A U112C | 1.25
G58C G110C A121U | -4.05
G60C U109G G120A | -5.9
G61A G120A U133A | 0.274
G57A U87C | -1.14
G61A A83G G113A U130G | -1.85
